# No end group written: not given here.
# T1: His-tagged P3028 (human, not fully specified)
# T1 construct: the tag is put first after 'PGE73=His-tag-P3028'; also called PGE73; not shown: His-tag
# T1 peptide: {His‑tag}-VFDEFKPLVEEPQNLIK
# Biological target: T1, His-tagged P3028
# Assay: chip ELISA
row,Binder,ELISA signal
1,KKLDTFHVKLSLFTER [P28R F7H],364
2,KKLDTFWVKLSLFTER [P28R F7W],380
3,YKLDTFFVKLSLFTER [P28R K1Y],315
4,KRLDTFFVKLSLFTER [P28R K2R],417
5,KKLDTFQVKLSLFTER [P28R F7Q],511
6,KKLDTFFVDLSLFTER [P28R K9D],149
7,KKLDTFFVELSLFTER [P28R K9E],240
8,RKLDTFFVKLSLFTER [P28R K1R],523
9,KLLDTFFVKLSLFTER [P28R K2L],343
10,KHLDTFFVKLSLFTER [P28R K2H],394
11,KMLDTFFVKLSLFTER [P28R K2M],400
12,KKLDTFFVKLSLDTER [P28R F13D],112
13,KKLDTFFVHLSLFTER [P28R K9H],306
14,KKLDTFTVKLSLFTER [P28R F7T],517
15,KKLDTFFVNLSLFTER [P28R K9N],256
16,KKLDTFFVKLSLRTER [P28R F13R],502
17,KKLDTFFVKLSLWTER [P28R F13W],430
18,KKLDTFFVKLSLATER [P28R F13A],525
19,KFLDTFFVKLSLFTER [P28R K2F],390
20,KKLDTFKVKLSLFTER [P28R F7K],232
21,KKLDTFFVKLSLLTER [P28R F13L],448
22,VKLDTFFVKLSLFTER [P28R K1V],442
23,KKLDTFFVKLSLNTER [P28R F13N],862
24,KSLDTFFVKLSLFTER [P28R K2S],281

row,Binder,ELISA signal
1,KKLDTFRVKLSLFTER [P28R F7R],369
2,KKLDTFFVKLSLYTER [P28R F13Y],291
3,WKLDTFFVKLSLFTER [P28R K1W],284
4,KKLDTFVVKLSLFTER [P28R F7V],527
5,KQLDTFFVKLSLFTER [P28R K2Q],350
6,FKLDTFFVKLSLFTER [P28R K1F],332
7,KKLDTFLVKLSLFTER [P28R F7L],517
8,KKLDTFSVKLSLFTER [P28R F7S],700
9,LKLDTFFVKLSLFTER [P28R K1L],449
10,KKLDTFFVKLSLKTER [P28R F13K],220
11,KKLDTFMVKLSLFTER [P28R F7M],712
12,DKLDTFFVKLSLFTER [P28R K1D],373
13,KALDTFFVKLSLFTER [P28R K2A],309
14,KKLDTFFVKLSLHTER [P28R F13H],1050
15,KKLDTFFVMLSLFTER [P28R K9M],283
16,HKLDTFFVKLSLFTER [P28R K1H],428
17,KDLDTFFVKLSLFTER [P28R K2D],335
18,QKLDTFFVKLSLFTER [P28R K1Q],455
19,KTLDTFFVKLSLFTER [P28R K2T],331
20,KKLDTFFVKLSLITER [P28R F13I],468
21,KWLDTFFVKLSLFTER [P28R K2W],304
22,KKLDTFFVKLSLMTER [P28R F13M],1190
23,KKLDTFFVLLSLFTER [P28R K9L],166
24,SKLDTFFVKLSLFTER [P28R K1S],344

row,Binder,ELISA signal
1,MKLDTFFVKLSLFTER [P28R K1M],457
2,KKLDTFFVKLSLETER [P28R F13E],98
3,KNLDTFFVKLSLFTER [P28R K2N],432
4,KILDTFFVKLSLFTER [P28R K2I],331
5,KKLDTFIVKLSLFTER [P28R F7I],446
6,KKLDTFFVALSLFTER [P28R K9A],191
7,KKLDTFYVKLSLFTER [P28R F7Y],334
8,KKLDTFFVQLSLFTER [P28R K9Q],330
9,KKLDTFFVKLSLSTER [P28R F13S],635
10,TKLDTFFVKLSLFTER [P28R K1T],493
11,KKLDTFNVKLSLFTER [P28R F7N],348
12,KKLDTFFVILSLFTER [P28R K9I],190
13,AKLDTFFVKLSLFTER [P28R K1A],466
14,EKLDTFFVKLSLFTER [P28R K1E],396
15,KKLDTFFVKLSLTTER [P28R F13T],494
16,KELDTFFVKLSLFTER [P28R K2E],349
17,KVLDTFFVKLSLFTER [P28R K2V],317
18,KKLDTFFVFLSLFTER [P28R K9F],174
19,IKLDTFFVKLSLFTER [P28R K1I],483
20,KKLDTFFVKLSLVTER [P28R F13V],446
21,NKLDTFFVKLSLFTER [P28R K1N],445
22,KYLDTFFVKLSLFTER [P28R K2Y],301
23,KKLDTFFVKLSLQTER [P28R F13Q],1140

# — US20170298096A1 (CANIMGUIDE THERAPEUTICS, published 2017)
